Experimental data from US20230331828A1 (published 2023).
Where “and” joins values, the source holds several entries; their conditions need not be identical. Equal entries are not always repeated.

Experiments:
Aβ1-42 fibrils [1] = target: T1, Aβ1-42 fibrils (human); assay: competition ELISA; plate coated with fibril Aβ42; competitor hBP-biotin; IC50 of test divided by IC50 of hBP
T1 construct: Aβ1-42 polypeptide, HFIP-treated, incubated in 10 mM HCl at 37 C for 24 h, pelleted fibrillar fraction, sonicated; Multimeric fibril; also called fibril Aβ42; fibrillar Aβ42
Protocol: To generate fibrils, Aβ 1-42 polypeptides, previously treated with HFIP (hexafluoroisopropanol) and dried, were resuspended in DMSO to 5 mM, then further diluted to 100 uM with 10 mM HCl. Samples were incubated at 37° C. for 24 h, and then centrifuged to separate soluble and fibrillar species. The pellet was the resuspended in 1×D-PBS to the original volume and sonicated before use.
Plates were coated with 0.5 mg/ml of fibril Aβ 42 and blocked, e.g., with 1% BSA/PBS. […] 100 ul of GE Streptavidin HRP diluted 1/10,000 was then added and incubated for 30 minutes. Plates were then washed 6× with TTBS. Thermo Fisher o-phenylenediamine dihydrochloride (OPD) substrate was prepared fresh per manufacturers direction, and 100 ul per well was added. The reaction was incubated for 15 minutes and the reaction stopped with 50 ul 2N H₂SO₄.

Aβ1-42 fibrils [2] = target: T1, Aβ1-42 fibrils; assay: SPR (BIAcore T200); Aβ1-42 fibrils immobilized, antibody as analyte; global 1:1 fit
Protocol: (§1) Fibrils were immobilized on sensor chip CMS (GE Healthcare Life Sciences) via amine coupling to a level to ensure a maximum binding of analyte of approximately 50 RU. […] Regeneration of the chip surface was accomplished by 2 short injections of 10 mM Glycine-HCl pH 1.7. Data was blank subtracted to both a sensor not containing ligand and 0 nM analyte concentration. Analysis was performed using a global 1:1 fit with BIAcore Insight Evaluation software (v2.0) with bulk refractive index set to zero RU.

Aβ1-28 [3] = target: T2, Aβ1-28 (human); assay: SPR (Biacore T200); antibody captured by anti-human Fc, Aβ1-28 as analyte; global 1:1 fit
T2 construct: Bought peptide (Bachem); also called Aß1-28 monomer; A131-28
Protocol: (§2) Determination of binding affinity of anti-Aß candidates to Aß₁₋₂₈ (Bachem, Torrance, CA) was performed using a Biacore T200. Anti-human Fc antibody was immobilized to a CM3 sensor chip (GE Healthcare Life Sciences) via amine coupling and used to capture Aß antibodies.
(§3) Various concentrations of Aß₁₋₂₈ (analyte, ranging from concentrations of 100 nM down to 0.39 nM, serial diluted 2-fold each dilution step) were passed over the captured ligand at 50 μl/min in running buffer (HBS+0.05% P-20, 1 mg/mL BSA) for 240 s association time and 900 s dissociation time. Data were blank subtracted to both an irrelevant sensor not containing ligand, and buffer runs containing 0 nM analyte concentration. Analysis was performed using a global 1:1 fit with Biacore Evaluation software (v3.0).

Aβ1-42 fibrils [4] = target: T1, Aβ1-42 fibrils; assay: SPR (BIAcore T200); Aβ1-42 fibrils immobilized, antibody as analyte; global 1:1 fit; apparent KD (avidity)
Protocol: as §1

[5] = target: T3, Aβ pathology (plaques) in human AD brain tissue (human, UniProt P05067 672-713); assay: IHC on frozen human AD brain sections, brain AD 13-75; % stained area against antibody concentration (0.03-9 µg/ml)
T3 construct: Native tissue deposits, heterogeneous; also called tissue Aβ pathology; Aβ plaques
Protocol: (§4) Tissue Sectioning and Fixation. The unfixed frozen brain tissue samples were embedded in Tissue-Tek OCT (Sakura Finetek) in cryomolds dipped in a mixture of 2-methylbutane and dry ice slurry (−60° C.) then stored at −80° C. until sectioning. Serial 10 μm thick cryosections were generated using a Leica 3050S cryostat. The sections were directly thaw-mounted on positively charged glass slides and were stored at −20° C. until use. Prior to immunohistochemistry IHC procedures, the slides were immersed in 10% neutral buffered formalin solution for 10 minutes at 4° C., rinsed in PBS, then incubated for an hour at 37° C. in a glucose oxidase solution (20 mM beta D(+) glucose, 2 mM sodium azide, and 2 units/mL glucose oxidase in 1×PBS). The slides were rinsed 3 times for 5 minutes in PBS before they were transferred onto staining racks for processing in an automated stainer.
(§5) Antibody biotinylation. The humanized IgG antibodies were biotinylated using a non-covalent method, by means of incubation with a biotin-conjugated goat anti-human monovalent fab fragment (Jackson ImmunoResearch) in a ratio of 1:4, for 1 hour at room temperature. Unbound excess Fab was absorbed by pre-incubation with human serum for an additional hour before use. The freshly prepared antibodies were then loaded into the stainer for immediate application to tissue sections.
(§6) Immunostaining. The staining was performed in an automated Leica Bond Rx Stainer (Leica Biosystems), using the Bond Research Kit (DS980, Leica Biosystems) and the avidin-biotin amplified immuno-peroxidase detection system. Each biotinylated anti-Aβ antibody, or a human IgG control, was applied to the sections, at specified concentrations, for one hour and the staining was visualized using the avidin-biotin amplification system (ABC Elite Standard, PK-6100; Vector Laboratories). Hematoxylin counter-staining of nuclei was subsequently applied to sections before dehydration in an ascending series of alcohols, clearing in xylene, cover-slipping, and air-drying.

Aβ1-28 [6] = target: T2, Aβ1-28; assay: SPR (Biacore T200); antibody captured by anti-human Fc, Aβ1-28 as analyte; global 1:1 fit; apparent KD
Protocol: as §2, §3

[7] = target: soluble Aβ (Aβ42) aggregates (human, unlabeled, biotinylated or 9:1 unlabeled:biotinylated (position of biotin not stated)); assay: cell-based or functional assay
Aβ1-42 fibrils [8] = target: T1, Aβ1-42 fibrils; assay: direct binding to fibrillar Aβ1-42 (FIG. 27)
[9] = target: T3, Aβ pathology (plaques) in human AD …; assay: IHC on frozen human AD brain sections, brain AD 15-19; % stained area against antibody concentration (0.03-9 µg/ml)
Protocol: as §4, §5, §6

[10] = target: T3, Aβ pathology (plaques) in human AD …; assay: IHC on frozen human AD brain sections, brain AD 14-11; % stained area against antibody concentration (0.03-9 µg/ml)
Protocol: as §4, §5, §6

[11] = target: T3, Aβ pathology (plaques) in human AD …; assay: IHC on frozen human AD brain sections, brain AD 11-97; % stained area against antibody concentration (0.03-9 µg/ml)
Protocol: as §4, §5, §6

AβpE3-42 = target: T4, AβpE3-42 (human, N-terminal pyroglutamate at position 3 of Aβ); assay: direct binding to AβpE3-42 (FIG. 27)
T4 construct: also called pyroglutamate-3 Aβ; pyroglutamate-modified Aβ
T4 sequence (peptide, as listed by the source): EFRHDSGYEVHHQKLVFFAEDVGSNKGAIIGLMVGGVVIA

T3 sequence (P05067 672-713): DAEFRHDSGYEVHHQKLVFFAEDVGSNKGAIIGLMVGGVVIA
T1 sequence (peptide, as listed by the source): as the sequence (P05067 672-713) above
T2 sequence (peptide, as listed by the source): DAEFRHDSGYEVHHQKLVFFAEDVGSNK
Chain of soluble Aβ (Aβ42) aggregates (human, unlabeled, biotinylated or 9:1 unlabeled:biotinylated (position of biotin not stated)) (peptide, as listed by the source): as the sequence (P05067 672-713) above

B1: h2731 (antibody, V domains shown)
VH: EVQLLESGGGLVQPGGSLRLSCAASGFTFSNYGMSWVRQAPGKGLEWVASIRSGSGRTYYSDNVKGRFTISRDNSKNTLYLQMNSLRAEDTAVYYCVRYDHYSGSSDYWGQGTLVTVSS
VL: DVVMTQSPLSLPVTLGEPASISCKSSQSLLDYDGKTYLNWLLQKPGQSPQRLIYRVTNRDTGVPDRFSGSGSGTDFTLKISRVEAEDVGVYYCWQGTHFPRSFGQGTKVEIK
notes: Humanized IgG mAb; Only the variable domains are tied to the construct
- IC50 ratio (test:hBP) (Aβ1-42 fibrils [1]): 0.61 ratio
- koff (Aβ1-42 fibrils [2]): 2.62e-05 s⁻¹
- kon (Aβ1-42 fibrils [2]): 372000 M⁻¹ s⁻¹
- koff (Aβ1-28 [3]): 0.000595 s⁻¹
- kon (Aβ1-28 [3]): 119000 M⁻¹ s⁻¹
- Kd (Aβ1-42 fibrils [4]): 0.0704 nM
- Area Under Curve [5]: 150
- Kd (Aβ1-28 [6]): 5.01 nM
- blockade of binding of soluble Aβ to rat hippocampal neurons at 1:50 molar mAb:Aβ42 ratio [7]: > 90%
- EC50 (Aβ1-42 fibrils [8]): 0.0081 µg/mL and 0.054 nM
- Area Under Curve [9]: 52.7
- Area Under Curve [10]: 149
- Area Under Curve [11]: 50.6
- binding result (AβpE3-42): no binding (tested: 100 ng/ml)
